Results on 3 molecules are retold here after doi:10.1101/2025.11.14.688546, “Nuclear-import receptors remodel the dilute phase to suppress phase transitions of RNA-binding proteins with prion-like domains” (bioRxiv, 2025).

The target of data set [1] is Kapβ2 (Homo sapiens) (UniProt Q92973). The following applies: cited from earlier work.
For data set [2] the target is unchanged. The data set is described as follows: fluorescence anisotropy. The conditions noted are these: cited from earlier work.
A further data set deals with hnRNPA1 (UniProt P09651).
hnRNPA1, sequence (P09651 whole entry): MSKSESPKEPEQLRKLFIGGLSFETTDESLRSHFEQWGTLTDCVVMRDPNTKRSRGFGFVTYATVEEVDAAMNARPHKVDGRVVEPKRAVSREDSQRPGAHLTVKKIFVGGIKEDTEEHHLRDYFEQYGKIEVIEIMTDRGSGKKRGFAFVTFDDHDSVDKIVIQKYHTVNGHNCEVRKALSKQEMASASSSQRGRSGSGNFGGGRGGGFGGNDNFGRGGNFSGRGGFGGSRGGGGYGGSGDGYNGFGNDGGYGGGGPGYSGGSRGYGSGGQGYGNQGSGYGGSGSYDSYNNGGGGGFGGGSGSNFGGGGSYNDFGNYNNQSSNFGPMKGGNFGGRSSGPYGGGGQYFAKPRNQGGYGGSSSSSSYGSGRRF
Data set [3] concerns the molecule itself. The data set is described as follows: microfluidic resistive pulse sensing (MRPS); increasing concentrations of the RNA-binding protein alone; MBP cleaved in situ by TEV (0.04 mg/ml), 1.5–2 h at room temperature; C-400 and C-2000 cartridges (70–2000 nm); FUS: 20 mM HEPES pH 7.4, 207 mM NaCl, 1.3 mM DTT, 0.7 mM EDTA, 3.3 % glycerol; hnRNPA1 and hnRNPA2: same with 66.7 mM NaCl.

Where two headings read alike, the source gives them in different places.

Kapβ2 (Homo sapiens), sequence (Q92973 whole entry): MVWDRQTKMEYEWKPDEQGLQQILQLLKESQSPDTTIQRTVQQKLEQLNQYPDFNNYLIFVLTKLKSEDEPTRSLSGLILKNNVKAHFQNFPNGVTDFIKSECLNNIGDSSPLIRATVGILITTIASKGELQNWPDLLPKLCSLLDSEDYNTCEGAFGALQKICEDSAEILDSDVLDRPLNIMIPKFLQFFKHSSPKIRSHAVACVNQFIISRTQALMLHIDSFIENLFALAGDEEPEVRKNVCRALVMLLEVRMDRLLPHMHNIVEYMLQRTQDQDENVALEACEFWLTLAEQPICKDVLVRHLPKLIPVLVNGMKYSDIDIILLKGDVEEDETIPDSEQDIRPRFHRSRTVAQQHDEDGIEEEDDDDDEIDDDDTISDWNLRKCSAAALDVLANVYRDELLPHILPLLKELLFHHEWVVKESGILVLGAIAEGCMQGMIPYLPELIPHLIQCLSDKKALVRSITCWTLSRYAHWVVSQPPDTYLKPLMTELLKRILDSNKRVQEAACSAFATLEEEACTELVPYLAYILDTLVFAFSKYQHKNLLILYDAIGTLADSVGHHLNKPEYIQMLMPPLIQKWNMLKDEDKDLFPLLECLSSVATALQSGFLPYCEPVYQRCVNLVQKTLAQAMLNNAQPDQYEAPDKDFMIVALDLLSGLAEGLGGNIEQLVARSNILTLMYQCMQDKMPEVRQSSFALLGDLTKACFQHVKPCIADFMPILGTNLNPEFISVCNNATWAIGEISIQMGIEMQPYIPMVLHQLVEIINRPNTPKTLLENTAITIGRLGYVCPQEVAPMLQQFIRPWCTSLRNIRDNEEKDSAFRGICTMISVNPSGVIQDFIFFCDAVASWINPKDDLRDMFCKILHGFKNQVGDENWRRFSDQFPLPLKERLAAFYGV

The term Kd denotes the concentration at which binding is half-saturated. As to FUS (from UniProt P35637), the Kd with Kapβ2 (Homo sapiens) [1] is 50 nM; with Kapβ2 (Homo sapiens) [2], 43 nM. Molecule “Karyopherin-β2 (from UniProt Q92973 1-898) (natural protein)” showed a saturation concentration (csat) of hnRNPA1 for condensate formation, brightfield microscopy; ~4 μM without Kapβ2, measured with 2 μM Kapβ2 with hnRNPA1 of 6 µM.

B1: FUS^P525L (natural protein, UniProt P35637 1-526, looked up)
chain: MASNDYTQQATQSYGAYPTQPGQGYSQQSSQPYGQQSYSGYSQSTDTSGYGQSSYSSYGQSQNTGYGTQSTPQGYGSTGGYGSSQSSQSSYGQQSSYPGYGQQPAPSSTSGSYGSSSQSSSYGQPQSGSYSQQPSYGGQQQSYGQQQSYNPPQGYGQQNQYNSSSGGGGGGGGGGNYGQDQSSMSSGGGSGGGYGNQDQSGGGGSGGYGQQDRGGRGRGGSGGGGGGGGGGYNRSSGGYEPRGRGGGRGGRGGMGGSDRGGFNKFGGPRDQGSRHDSEQDNSDNNTIFVQGLGENVTIESVADYFKQIGIIKTNKKTGQPMINLYTDRETGKLKGEATVSFDDPPSAKAAIDWFDGKEFSGNPIKVSFATRRADFNRGGGNGRGGRGRGGPMGRGGYGGGGSGGGGRGGFPSGGGGGGGQQRAGDWKCPNPTCENMNFSWRNECNQCKAPKPDGPGGGPGGSHMGGNYGDDRRGGRGGYDRGGYRGRGGDRGGFRGGRGGGDRGGFGPGKMDSRGEHRQDRRERLY
notes: Production of the variant is not described on its own; also called ALS-linked FUS variant P525L; not shown: MBP, N-terminal, cleaved
Consider B1, for which the binding result in data set [3] is reported as “binds”.
